Consider 51 substances from patent publication US20130023483A1.

Square brackets hold non-standard residues; d marks the D form. Oic = O=C(O)[C@@H]1C[C@@H]2CCCC[C@@H]2N1; 1Nal = N[C@@H](Cc1cccc2ccccc12)C(=O)O; 2Nal = N[C@@H](Cc1ccc2ccccc2c1)C(=O)O; d1Nal = N[C@H](Cc1cccc2ccccc12)C(=O)O; Tic = O=C(O)[C@@H]1Cc2ccccc2CN1; dTic = O=C(O)[C@H]1Cc2ccccc2CN1; dOrn = NCCC[C@@H](N)C(=O)O; Orn = NCCC[C@H](N)C(=O)O; Dab = NCC[C@H](N)C(=O)O; Abu = CC[C@H](N)C(=O)O

chemokine receptor CXCR7 (RDC1), sequence (P25106 whole entry): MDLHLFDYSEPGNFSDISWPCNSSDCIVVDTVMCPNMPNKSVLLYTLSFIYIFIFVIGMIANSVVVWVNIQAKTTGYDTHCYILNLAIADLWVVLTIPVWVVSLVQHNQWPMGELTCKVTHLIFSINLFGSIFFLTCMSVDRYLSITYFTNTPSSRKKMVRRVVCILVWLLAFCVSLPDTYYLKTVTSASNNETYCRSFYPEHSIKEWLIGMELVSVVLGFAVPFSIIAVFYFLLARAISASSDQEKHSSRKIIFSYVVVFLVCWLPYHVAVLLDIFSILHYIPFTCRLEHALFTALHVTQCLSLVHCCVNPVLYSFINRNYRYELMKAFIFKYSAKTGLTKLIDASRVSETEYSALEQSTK

This experiment concerns the target chemokine receptor CXCR7 (RDC1) (UniProt P25106). The experiment in a line: cell-based or functional assay.
In the case of cyclo(A[dF]WR[dP][Tic]), the β-Arrestin EC50 amounted to 163 nM. Regarding cyclo(W[dF]W[Orn][dP][Tic]), the β-Arrestin EC50 was 12.1 nM.

Substance cyclo(H[dW]HR[dP][Tic]) displayed a β-Arrestin EC50 of 226 nM. The value for cyclo(I[dR]IR[dP][Tic]) was 34.3 nM; that for “cyclo(-Trp-^DThr-Tyr-Arg-^DPro-Azt-) (peptide)” was 148 nM. “cyclo(-Trp-^DArg-Trp-Arg-^DPro-Azt-) (peptide)” yielded a β-Arrestin EC50 of 170 nM.

For cyclo(H[dF]WR[dP][Tic]), the β-Arrestin EC50 was 32.1 nM. As for “cyclo(-Trp-^DArg-Ile-Arg-^DPro-Azt-) (peptide)”, the β-Arrestin EC50 was found to be 47.7 nM. cyclo([1Nal][dH]IR[dP][Tic]): the β-Arrestin EC50 is 347 nM. The value for cyclo(W[dF]W[Dab][dP][Tic]) was 12.6 nM. Under cyclo(I[dW]HR[dP][Tic]) stands 317 nM; under cyclo(W[dF]WY[dP][Tic]), 94.5 nM. The value for “cyclo(-1Nal-^DHis-Tyr-Arg-^DPro-Azt-) (peptide)” was 44.4 nM. The substance cyclo(W[dF]IR[dP][Tic]) registered a β-Arrestin EC50 of 148 nM. On to cyclo(W[dF]WK[dP][Tic]), for which the β-Arrestin EC50 is 16.5 nM. Under cyclo([Abu][dR]RW[dP][Tic]) stands 97.5 nM; under cyclo(W[dOrn]WR[dP][Tic]), 111 nM; under cyclo(W[dR]HW[dP][Tic]), 217 nM. The substance cyclo(W[dF]RR[dP][Tic]) registered a β-Arrestin EC50 of 178 nM. The value for cyclo(R[dW]HR[dP][Tic]) was 234 nM.

Take “cyclo(-His(Me)-^DPhe-Trp-Arg-^DPro-Tic-) (peptide)”: the β-Arrestin EC50 came to 32.5 nM.

Take cyclo(W[dF]FR[dP][Tic]): the β-Arrestin EC50 is 75.7 nM. cyclo([1Nal][dR]WR[dP][Tic]) came in with a β-Arrestin EC50 of 280 nM. The value for cyclo(R[dF]WR[dP][Tic]) was 12.8 nM. The value for cyclo(W[dR]HR[dP][Tic]) was 348 nM. The value for cyclo(W[dW]WR[dP][Tic]) was 64.9 nM. For the substance “cyclo(-Trp-^DPhe-Trp-Arg-^DPro-(4S)-Hyp(Bn)-) (peptide)”, the β-Arrestin EC50 stood at 1.7 nM. As to cyclo(H[d1Nal]HW[dP][Tic]), the β-Arrestin EC50 was 269 nM. Take cyclo(W[dF]YR[dP][Tic]): the β-Arrestin EC50 came out at 326 nM. The value for “cyclo(-Trp-^DPhe-Trp-Arg-^DPro-Tiq-) (peptide)” was 0.4 nM; that for cyclo(F[dF]WR[dP][Tic]) was 22.5 nM.

Substance cyclo([1Nal][dF]WR[dP][Tic]) gave a β-Arrestin EC50 of 61.6 nM. Under “cyclo(-Trp-^DHis-Ile-Arg-^DPro-Azt-) (peptide)” stands 344 nM; under cyclo(W[dF]WR[dP][Oic]), 0.8 nM; under “cyclo(-Trp-^DArg-Trp-Ile-^DPro-Azt-) (peptide)”, 208 nM. The value for “cyclo(-1Nal-^DArg-Ile-Arg-^DPro-Azt-) (peptide)” was 41.2 nM; that for “cyclo(-1Nal-^DHis-Ile-Arg-^DPro-Azt-) (peptide)” was 85.7 nM; that for cyclo(W[dF]WH[dP][Tic]) was 18.3 nM. Under “cyclo(-Trp-^DHis-Trp-Arg-^DPro-Azt-) (peptide)” stands 342 nM. cyclo(W[dR]WR[dP][Tic]) returned a β-Arrestin EC50 of 128 nM. Under cyclo(W[dF]WR[dP][Tic]) stands 4.8 nM; under “cyclo(-Trp-^DPhe-Trp-Arg-^DPip-Pro-) (peptide)”, 78.7 nM; under cyclo(W[dF][2Nal]R[dP][Tic]), 16.9 nM. Under “cyclo(-1Nal-^DArg-Trp-Arg-^DPro-Azt-) (peptide)” stands 146 nM; under cyclo(I[dH]WR[dP][Tic]), 70.8 nM; under cyclo(W[dH]WR[dP][Tic]), 204 nM. Under cyclo(R[dH]WR[dP][Tic]) stands 144 nM; under cyclo([2Nal][dF]WR[dP][Tic]), 8.9 nM; under cyclo(W[dF]WR[dTic]P), 83.6 nM. cyclo(W[dI]WR[dP][Tic]): the β-Arrestin EC50 was determined as 63.4 nM. The value for cyclo(Y[dF]WR[dP][Tic]) was 11.5 nM.
